Assay results taken from article doi:10.1101/586255v1.

Substrate: N[C@@H](CO)C(=O)O
Experiment: purified protein, by the assay type
Details: pH 7.6; 37.0 °C

B1: SaSerRS (Staphylococcus aureus subsp. aureus NCTC 8325) (protein)
chain: MLDIRLFRNEPDTVKSKIELRGDDPKVVDEILELDEQRRKLISATEEMKARRNKVSEEIALKKRNKENADDVIAEMRTLGDDIKEKDSQLNEIDNKMTGILCRIPNLISDDVPQGESDEDNVEVKKWGTPREFSFEPKAHWDIVEELKMADFDRAAKVSGARFVYLTNEGAQLERALMNYMITKHTTQHGYTEMMVPQLVNADTMYGTGQLPKFEEDLFKVEKEGLYTIPTAEVPLTNFYRNEIIQPGVLPEKFTGQSACFRSEAGSAGRDTRGLIRLHQFDKVEMVRFEQPEDSWNALEEMTTNAEAILEELGLPYRRVILCTGDIGFSASKTYDLEVWLPSYNDYKEISSCSNCTDFQARRANIRFKRDKAAKPELAHTLNGSGLAVGRTFAAIVENYQNEDGTVTIPEALVPFMGGKTQISKPVK
**Q.** With B1 as the protein, how does the Km read?
**A.** 4.39 ± 0.654 mM

B2: EcSerRS (Escherichia coli K-12) (protein)
chain: MLDPNLLRNEPDAVAEKLARRGFKLDVDKLGALEERRKVLQVKTENLQAERNSRSKSIGQAKARGEDIEPLRLEVNKLGEELDAAKAELDALQAEIRDIALTIPNLPADEVPVGKDENDNVEVSRWGTPREFDFEVRDHVTLGEMHSGLDFAAAVKLTGSRFVVMKGQIARMHRALSQFMLDLHTEQHGYSENYVPYLVNQDTLYGTGQLPKFAGDLFHTRPLEEEADTSNYALIPTAEVPLTNLVRGEIIDEDDLPIKMTAHTPCFRSEAGSYGRDTRGLIRMHQFDKVEMVQIVRPEDSMAALEEMTGHAEKVLQLLGLPYRKIILCTGDMGFGACKTYDLEVWIPAQNTYREISSCSNVWDFQARRMQARCRSKSDKKTRLVHTLNGSGLAVGRTLVAVMENYQQADGRIEVPEVLRPYMNGLEYIG
**Q.** B2 was tested. Which Km did it give?
**A.** 4.706 ± 0.706 mM
